Measured values reported in patent US20220125962A1.

B1: ^225/7Ac-HuM195 (HuM195-DOTA conjugate labeled with linac/accelerator-generated ^225Ac containing a molar excess of ^227Ac) (antibody, INN chains, looked up, V domains shown)
VH: QVQLVQSGAEVKKPGSSVKVSCKASGYTFTDYNMHWVRQAPGQGLEWIGYIYPYNGGTGYNQKFKSKATITADESTNTAYMELSSLRSEDTAVYYCARGRPAMDYWGQGTLVTVSS
VL: DIQMTQSPSSLSASVGDRVTITCRASESVDNYGISFMNWFQQKPGKAPKLLIYAASNQGSGVPSRFSGSGSGTDFTLTISSLQPDDFATYYCQQSKEVPWTFGQGTKVEIK
modifications: DOTA conjugate labelled with 225Ac/227Ac

Experiments:
[1] = target: human CD33 antigen (human) (UniProt P20138); experiment: immunoreactivity of the radiolabeled HuM195-DOTA conjugate, Preparation 2; format not described
[2] = target: human CD33 antigen (human) (UniProt P20138); experiment: immunoreactivity of the radiolabeled HuM195-DOTA conjugate, Preparation 1; format not described

| Molecule | Immunoreactivity (%) [1] | Immunoreactivity (%) [2] |
| --- | --- | --- |
| ^225Ac-HuM195 (HuM195-DOTA conjugate labeled with thorium cow-generated ^225Ac) (antibody) | 82% | 72.2% |
| B1 | 83% | 65.4% |
